This note sets out measurements from PMC6940745 (International Journal of Molecular Sciences, 2019).

Where a SMILES comes first, the peptide text is derived from it. [ ]: non-standard residue; d: D form. The star is where a group is joined. Gly(N(CH2)2(3-indolyl)) = O=C(O)CNCCc1c[nH]c2ccccc12; N(indol-3-ylmethyl)Gly = O=C(O)CNCc1c[nH]c2ccccc12; 2Nal = N[C@@H](Cc1ccc2ccccc2c1)C(=O)O; d2Nal = N[C@H](Cc1ccc2ccccc2c1)C(=O)O; Dab = NCC[C@H](N)C(=O)O; Bz = O=C(c1ccccc1)*; NPr2 = CCCN(CCC)*

Assay [1] has as its system B16 murine melanoma cells. The assay is described as follows: Total melanin synthesis in mouse melanoma cells. Type of assay: cell-based. The conditions noted are these: 72 h incubation. Here is the method: B16 murine melanoma cells, which are highly responsive towards stimulation with alpha-melanocyte stimulating hormone (alpha-MSH), were grown in Dulbecco’s modified eagle medium (DMEM) with 1 g/L glucose supplemented with 3 g/L glucose, 2 mM L-glutamine, 50 U/mL Penicillin, 50 µg/mL Streptomycin, and 10% fetal calf serum. They were kept at 37 °C in a 5% CO2 atmosphere. Cells were grown for 24 h and then medium was replaced with medium containing the test or reference (NDP-alpha-MSH) compounds. After 72 h, total (intracellular and extracellular) melanin content was determined by absorbance spectroscopy at 405 nm. The results were quantified against a melanin standard curve.
Figure 1 Total melanin synthesis in mouse melanoma cells stimulated with MC1R-agonist peptides. MC1R-agonist peptides were incubated at various concentrations together with the near confluent mouse melanoma cell line B16F10. NDP-alpha-MSH at 100 nM was used as the reference and set to 100% melanin (red line). Error bars represent standard error of the mean of three experiments.

Assay [2] has as its target T1, human recombinant MC1 receptor (Homo sapiens, UniProt Q01726).
T1 construct: host or cells: CHO-K1
The assay is described as follows: MC1R activation, cAMP HTRF assay in CHO-K1 cells. The class given is cell-based. Here is the method:
MCR-activation assays were performed by means of a cAMP HTRF (homogeneous time resolved fluorescence) assay for Gs-coupled receptors (cAMP Gs dynamic kit, Cisbio bioassays, 62AM4PEC). CHO-K1 cells expressing human recombinant MC1 receptor (EuroscreenFast, Gosselies, Belgium) (or MC2R, MC3R, MC4R, MC5R) were grown prior to the test in media without antibiotic. They were detached by gentle flushing with PBS-EDTA (5 mM EDTA), recovered by centrifugation, and resuspended in assay buffer (5 mM KCl, 1.25 mM MgSO4, 124 mM NaCl, 25 mM HEPES, 13.3 mM Glucose, 1.25 mM KH2PO4, 1.45 mM CaCl2, 0.5 g/L BSA, supplemented with 1 mM IBMX). Dose response curves were performed in parallel with the reference compounds. For agonist test (96-well), 12 µL of cells were mixed with 12 µL of the test compound diluted at increasing concentrations in assay buffer, and then incubated for 30 min at room temperature. After addition of the lysis buffer and 1 h incubation, fluorescence signal was measured, according to the manufacturer’s specifications, with the homogeneous time resolved fluorescence (HTRF) kit.

Assay [3] deals with human abdominal skin ex vivo. The assay is described as follows: Stimulation of pigmentation in human abdominal skin ex vivo (Fontana-Masson melanin quantification). The class given is cell-based. The conditions noted are these: 200 µM peptide, topical, six days. Here is the method: Following declaration of Helsinki principles (DoH-Oct2013, World Medical Association, Ferney-Voltaire, France), human skin samples were obtained from elective plastic surgery after informed consent was obtained. For the two experiments shown in Figure 2, Figure 3 and Figure 4, we had one person with an individual topology angle (ITA°) of 18, and one person with an ITA° of 39 [69]. The skin samples were cut in pieces of 8 × 3 mm and cultured up to day 6. Skin samples were cultured in an air–liquid interface in a perforated ring of stainless steel in contact with culture medium (modified Williams’ E medium). The culture medium was renewed every three days (i.e., day 0–3). Compounds were added daily in DMSO at 4 µL volume. At day 6, the skin samples were fixed in formalin, embedded in paraplast, and cut at the microtome for histochemical staining and consequent image analysis. Six skin biopsies were used for each single treatment.
Two skin biopsies for each treatment were weighed and, in each case, reduced in the dermal portion, in order to have approximately the same weight for all of them. Samples were then washed and processed with methylthiazolyldiphenyl-tetrazolium bromide (MTT). The color intensity, that is directly proportional to skin vitality, was measured with a plate reader at a wavelength of 570 nm. For melanin quantification, skin sections were stained with a modified Fontana-Masson stain that dyes melanin argentaffin granules in black/dark grey. The amount of melanin present in each slide was evaluated by estimating grey intensity and distribution within the sections using ImageJ application (NIH-USA). Two slides of each skin sample were processed by image acquisition and related analysis (i.e., 12 images for each treatment).
Figure 2 Stimulation of pigmentation by MC1R-agonist peptides ex vivo. Melanin was quantified on skin sections using ImageJ software (NIH, USA). Human abdominal skin was topically treated with peptides at various concentrations for six days. * p < 0.05 vs vehicle by unpaired Student’s t-test. […]

For assay [4], the target named is Melanocortin-1 receptor (MC1R), human recombinant, in CHO-K1 cells (human) (UniProt Q01726).
Chain of Melanocortin-1 receptor (MC1R), human recombinant, in CHO-K1 cells (human) (Q01726 whole entry): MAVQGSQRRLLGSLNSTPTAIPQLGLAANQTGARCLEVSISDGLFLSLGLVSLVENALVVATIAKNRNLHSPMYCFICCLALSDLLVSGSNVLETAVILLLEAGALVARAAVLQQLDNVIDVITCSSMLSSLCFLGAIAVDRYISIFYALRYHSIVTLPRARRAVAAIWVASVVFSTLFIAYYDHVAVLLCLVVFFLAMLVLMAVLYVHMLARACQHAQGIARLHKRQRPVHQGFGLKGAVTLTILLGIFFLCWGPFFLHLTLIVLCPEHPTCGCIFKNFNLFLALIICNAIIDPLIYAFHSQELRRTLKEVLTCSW
Assay [5] addresses Endothelin B-receptor (ETBR), human (human) (UniProt P24530).
Assay [6] deals with Melanin-concentrating hormone receptor MCH1R, human (human) (UniProt Q99705).
Chain of Melanin-concentrating hormone receptor MCH1R, human (human) (Q99705 whole entry): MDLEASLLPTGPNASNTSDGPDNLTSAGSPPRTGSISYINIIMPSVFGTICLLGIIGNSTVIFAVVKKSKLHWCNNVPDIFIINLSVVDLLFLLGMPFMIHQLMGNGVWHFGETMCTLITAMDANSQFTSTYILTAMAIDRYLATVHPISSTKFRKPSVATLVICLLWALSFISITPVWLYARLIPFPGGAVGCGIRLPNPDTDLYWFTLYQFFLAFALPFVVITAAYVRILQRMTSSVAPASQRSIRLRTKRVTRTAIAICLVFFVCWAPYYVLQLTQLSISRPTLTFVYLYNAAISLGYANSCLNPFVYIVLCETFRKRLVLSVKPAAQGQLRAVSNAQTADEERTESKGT
Assay [7] deals with Melanin-concentrating hormone receptor MCH2R, human (human) (UniProt Q969V1).
Chain of Melanin-concentrating hormone receptor MCH2R, human (human) (Q969V1 whole entry): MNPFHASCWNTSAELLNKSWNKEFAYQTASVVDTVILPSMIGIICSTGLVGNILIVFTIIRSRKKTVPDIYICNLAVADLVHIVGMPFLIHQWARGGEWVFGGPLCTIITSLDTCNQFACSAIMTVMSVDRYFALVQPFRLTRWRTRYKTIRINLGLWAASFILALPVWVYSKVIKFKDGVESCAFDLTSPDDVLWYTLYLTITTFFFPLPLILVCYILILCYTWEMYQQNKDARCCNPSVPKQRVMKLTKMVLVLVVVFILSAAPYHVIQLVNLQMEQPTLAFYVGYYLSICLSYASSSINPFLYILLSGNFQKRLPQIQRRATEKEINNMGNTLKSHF
For assay [8], the target named is Melanocortin-2 receptor (MC2R), recombinant, in CHO-K1 cells (human) (UniProt Q01718).
Chain of Melanocortin-2 receptor (MC2R), recombinant, in CHO-K1 cells (human) (Q01718 whole entry): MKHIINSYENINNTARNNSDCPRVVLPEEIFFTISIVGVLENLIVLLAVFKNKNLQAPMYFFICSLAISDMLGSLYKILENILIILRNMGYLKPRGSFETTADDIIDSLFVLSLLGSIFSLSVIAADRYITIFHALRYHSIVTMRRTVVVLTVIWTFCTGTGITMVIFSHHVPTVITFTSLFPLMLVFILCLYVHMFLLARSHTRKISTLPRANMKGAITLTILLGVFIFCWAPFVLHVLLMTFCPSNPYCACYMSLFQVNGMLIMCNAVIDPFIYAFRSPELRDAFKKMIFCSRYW
Assay [9] addresses Melanocortin-3 receptor (MC3R), recombinant, in CHO-K1 cells (human) (UniProt P41968).
In assay [10] the target is Melanocortin-4 receptor (MC4R), recombinant, in CHO-K1 cells (human) (UniProt P32245).
Chain of Melanocortin-4 receptor (MC4R), recombinant, in CHO-K1 cells (human) (P32245 whole entry): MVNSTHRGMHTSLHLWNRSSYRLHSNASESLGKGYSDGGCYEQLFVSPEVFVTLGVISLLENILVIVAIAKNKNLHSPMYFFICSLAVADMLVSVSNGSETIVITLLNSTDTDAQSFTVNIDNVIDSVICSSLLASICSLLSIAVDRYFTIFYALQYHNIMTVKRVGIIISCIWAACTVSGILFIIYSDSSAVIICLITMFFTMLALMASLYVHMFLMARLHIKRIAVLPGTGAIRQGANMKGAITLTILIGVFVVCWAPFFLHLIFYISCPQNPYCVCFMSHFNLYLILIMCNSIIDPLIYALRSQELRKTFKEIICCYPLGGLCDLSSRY
In assay [11] the target is Melanocortin-5 receptor (MC5R), recombinant, in CHO-K1 cells (human) (UniProt P33032).
Chain of Melanocortin-5 receptor (MC5R), recombinant, in CHO-K1 cells (human) (P33032 whole entry): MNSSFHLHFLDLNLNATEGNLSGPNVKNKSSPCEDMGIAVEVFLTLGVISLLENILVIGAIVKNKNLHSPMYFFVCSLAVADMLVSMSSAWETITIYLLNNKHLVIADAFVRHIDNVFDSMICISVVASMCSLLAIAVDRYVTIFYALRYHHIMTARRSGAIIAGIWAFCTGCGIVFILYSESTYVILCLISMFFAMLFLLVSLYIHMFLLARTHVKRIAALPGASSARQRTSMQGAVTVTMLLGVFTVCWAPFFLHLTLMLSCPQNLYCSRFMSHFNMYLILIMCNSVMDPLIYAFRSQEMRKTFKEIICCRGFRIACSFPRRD
A further assay has as its target Melatonin receptor MT1R (UniProt P48039).
For a further assay, the target named is T2, Melatonin receptor MT2R (UniProt P49286).
T2 sequence: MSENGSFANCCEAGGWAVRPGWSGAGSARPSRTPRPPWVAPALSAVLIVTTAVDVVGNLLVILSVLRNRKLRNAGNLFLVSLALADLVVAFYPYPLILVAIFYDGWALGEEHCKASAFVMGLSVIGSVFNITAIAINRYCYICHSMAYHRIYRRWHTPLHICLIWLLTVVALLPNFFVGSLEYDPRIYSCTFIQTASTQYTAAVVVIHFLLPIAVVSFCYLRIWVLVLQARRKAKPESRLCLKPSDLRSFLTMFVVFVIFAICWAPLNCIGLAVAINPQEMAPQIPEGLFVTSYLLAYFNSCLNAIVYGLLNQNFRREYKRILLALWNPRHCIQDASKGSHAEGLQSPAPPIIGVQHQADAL

For assay [12], the target named is Opioid receptor OP1R (human delta opioid receptor) (human) (UniProt P41143).
Assay [13] concerns the target Opioid receptor OP2R (human kappa opioid receptor) (human) (UniProt P41145).
Assay [14] deals with Opioid receptor OP3R (human mu opioid receptor) (human) (UniProt P35372).
The target in assay [15] is Serotonin receptor 5-HT2AR, human (human) (UniProt P28223).

Usually EC50 stands for the midpoint of the concentration-response curve.

T1 sequence (Q01726 whole entry): as the sequence (Q01726 whole entry) above
Chain of Endothelin B-receptor (ETBR), human (human) (P24530 27-442): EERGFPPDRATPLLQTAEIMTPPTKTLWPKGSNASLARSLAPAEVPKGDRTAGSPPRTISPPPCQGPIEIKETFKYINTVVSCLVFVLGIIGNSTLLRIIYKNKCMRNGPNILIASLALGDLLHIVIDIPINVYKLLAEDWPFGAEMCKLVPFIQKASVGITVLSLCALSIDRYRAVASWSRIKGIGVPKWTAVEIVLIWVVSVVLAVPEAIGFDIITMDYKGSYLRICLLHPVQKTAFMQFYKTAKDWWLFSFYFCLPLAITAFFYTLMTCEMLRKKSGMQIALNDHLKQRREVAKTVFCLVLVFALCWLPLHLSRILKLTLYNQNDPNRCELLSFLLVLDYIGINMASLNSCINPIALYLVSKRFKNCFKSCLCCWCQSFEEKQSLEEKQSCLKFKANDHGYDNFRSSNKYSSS
Chain of Melatonin receptor MT1R (P48039 whole entry): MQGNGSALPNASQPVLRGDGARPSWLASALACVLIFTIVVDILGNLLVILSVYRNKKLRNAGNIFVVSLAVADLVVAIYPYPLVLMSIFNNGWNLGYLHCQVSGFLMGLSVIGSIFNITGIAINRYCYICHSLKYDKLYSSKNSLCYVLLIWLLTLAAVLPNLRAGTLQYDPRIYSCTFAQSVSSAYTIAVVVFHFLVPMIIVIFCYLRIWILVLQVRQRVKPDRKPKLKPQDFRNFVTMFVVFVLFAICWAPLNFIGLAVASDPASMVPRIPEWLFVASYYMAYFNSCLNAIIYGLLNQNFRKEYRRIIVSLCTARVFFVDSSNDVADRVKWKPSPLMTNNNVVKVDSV
Chain of Melanocortin-3 receptor (MC3R), recombinant, in CHO-K1 cells (human) (P41968 whole entry): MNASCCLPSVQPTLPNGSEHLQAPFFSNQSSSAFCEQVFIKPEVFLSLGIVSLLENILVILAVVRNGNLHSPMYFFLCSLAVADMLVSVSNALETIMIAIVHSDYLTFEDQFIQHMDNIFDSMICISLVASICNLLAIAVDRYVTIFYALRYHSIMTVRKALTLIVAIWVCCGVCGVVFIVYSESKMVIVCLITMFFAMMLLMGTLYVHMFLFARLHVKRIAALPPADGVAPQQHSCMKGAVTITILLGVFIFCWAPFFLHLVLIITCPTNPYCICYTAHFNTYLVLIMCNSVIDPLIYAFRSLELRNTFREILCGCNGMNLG

`N=C(N)NCCC[C@H](NC(=O)[C@@H](Cc1ccccc1)NC(=O)[C@H](Cc1c[nH]cn1)NC(=O)CNC(=O)c1ccccc1)C(=O)N(CCc1c[nH]c2ccccc12)CC(N)=O` [Peptide 7] (Bz-GH[dF]R[Gly(N(CH2)2(3-indolyl))]-NH2): the “Concentration at which maximal melanin synthesis activity comparable to 100 nM NDP-alpha-MSH is reached” value in assay [1] is greater than 111 nM.
For the molecule `N=C(N)NCCC[C@H](NC(=O)[C@@H](Cc1ccccc1)NC(=O)[C@H](Cc1c[nH]cn1)NC(=O)CNC(=O)c1ccccc1)C(=O)N[C@@H](Cc1c[nH]c2ccccc12)C(N)=O` [Peptide 1] (Bz-GH[dF]RW-NH2), the EC50 in assay [2] was 0.041 nM. Besides, the “Concentration at which maximal melanin synthesis activity comparable to 100 nM NDP-alpha-MSH is reached” value in assay [1] is on record as “around 12.3 nM”. Further, the “Stimulation of pigmentation compared to vehicle-treated control tissue” value in assay [3] is on record as “up to 21%”.
As for `N=C(N)NCCC[C@H](NC(=O)[C@@H](Cc1ccccc1)NC(=O)[C@H](Cc1c[nH]cn1)NC(=O)CNC(=O)c1ccccc1)C(=O)N[C@H](Cc1ccccc1)C(N)=O` [Peptide 6] (Bz-GH[dF]R[dF]-NH2), in assay [2], the EC50 turned out to be 1.79 nM. Also, the “Concentration at which maximal melanin synthesis activity comparable to 100 nM NDP-alpha-MSH is reached” value in assay [1] was greater than 111 nM.
Take `N=C(N)NCCC[C@H](NC(=O)[C@@H](Cc1ccccc1)NC(=O)[C@H](Cc1c[nH]cn1)NC(=O)CNC(=O)c1ccccc1)C(=O)N[C@H](Cc1ccc2ccccc2c1)C(N)=O` [Peptide 3] (Bz-GH[dF]R[d2Nal]-NH2): in [2], the EC50 was determined as 0.25 nM. In addition, in [1], the “Concentration at which maximal melanin synthesis activity comparable to 100 nM NDP-alpha-MSH is reached” value is listed as “around 12.3 nM”.
Regarding “MC1R-agonist pentapeptide 3 (Bz-Gly-His-D-Phe-Arg-D-NaphAla-NH2)”, the EC50 of MC1R activation (cAMP HTRF assay, CHO-K1 cells expressing human MC1R) in assay [4] worked out at 0.25 nM.
As to `CCCN(CCC)C(=O)[C@H](Cc1c[nH]c2ccccc12)NC(=O)[C@H](CCCNC(=N)N)NC(=O)[C@@H](Cc1ccccc1)NC(=O)[C@H](Cc1c[nH]cn1)NC(=O)CNC(=O)c1ccccc1` [Peptide 5] (Bz-GH[dF]RW-NPr2), in [2], the EC50 was determined as 0.88 nM.
Consider “MC1R-agonist pentapeptide 2 (Bz-Gly-His-D-Phe-Arg-L-NaphAla-NH2)”, for which the EC50 of MC1R activation (cAMP HTRF assay, CHO-K1 cells expressing human MC1R) in assay [4] was determined as 0.11 nM.
Regarding `N=C(N)NCCC[C@H](NC(=O)[C@@H](Cc1ccccc1)NC(=O)[C@H](Cc1c[nH]cn1)NC(=O)CNC(=O)c1ccccc1)C(=O)N[C@@H](Cc1ccc2ccccc2c1)C(N)=O` [Peptide 2] (Bz-GH[dF]R[2Nal]-NH2), the EC50 in assay [2] was determined as 0.11 nM. Also, the “Concentration at which maximal melanin synthesis activity comparable to 100 nM NDP-alpha-MSH is reached” value in assay [1] is recorded as “around 12.3 nM”.
On the same counts, the results for `NCC[C@H](NC(=O)[C@@H](Cc1ccccc1)NC(=O)[C@H](Cc1c[nH]cn1)NC(=O)CNC(=O)c1ccccc1)C(=O)N[C@@H](Cc1c[nH]c2ccccc12)C(N)=O` [Peptide 8] (Bz-GH[dF][Dab]W-NH2) are 7.51 nM and greater than 111 nM.
Turning to “MC1R-agonist pentapeptide 8 (Bz-Gly-His-D-Phe-Dab-L-Trp-NH2)”, in assay [4], the EC50 of MC1R activation (cAMP HTRF assay, CHO-K1 cells expressing human MC1R) is 7.51 nM.

B1: MC1R-agonist pentapeptide 4 (Bz-Gly-His-D-Phe-Arg-D-Trp-N(Propyl)2) (peptide)
peptide: Bz-GH[dF]R[dW]-NPr2
SMILES: CCCN(CCC)C(=O)[C@@H](Cc1c[nH]c2ccccc12)NC(=O)[C@H](CCCNC(=N)N)NC(=O)[C@@H](Cc1ccccc1)NC(=O)[C@H](Cc1c[nH]cn1)NC(=O)CNC(=O)c1ccccc1
For the molecule B1, the EC50 of MC1R activation (cAMP HTRF assay, CHO-K1 cells expressing human MC1R) in [4] stood at 0.42 nM. Besides, the EC50 of receptor activation (Aequorin assay, recombinant cells; eight concentrations from 0.01 to 100,000 nM) in assay [5], in assay [6], in assay [7] and in assay [15] was greater than 100000 nM in each case. The EC50 of receptor activation (cAMP HTRF assay, CHO-K1 cells; eight concentrations from 0.01 to 100,000 nM) was greater than 100000 nM in [8], 877 nM in [9], 136 nM in assay [10] and greater than 100000 nM in [11]. The EC50 of receptor activation (GTPγ[35S] scintillation proximity assay on CHO-K1 membrane preparations; eight concentrations from 0.01 to 100,000 nM) (in the assay with Melatonin receptor MT1R; in the assay with Melatonin receptor MT2R; in [12]; in assay [13]; in assay [14]) was greater than 100000 nM each time.

B2: MC1R-agonist pentapeptide 5 (Bz-Gly-His-D-Phe-Arg-L-Trp-N(Propyl)2) (peptide)
peptide: Bz-GH[dF]RW-NPr2
SMILES: CCCN(CCC)C(=O)[C@H](Cc1c[nH]c2ccccc12)NC(=O)[C@H](CCCNC(=N)N)NC(=O)[C@@H](Cc1ccccc1)NC(=O)[C@H](Cc1c[nH]cn1)NC(=O)CNC(=O)c1ccccc1
Take B2: in assay [4], the EC50 of MC1R activation (cAMP HTRF assay, CHO-K1 cells expressing human MC1R) is 0.88 nM.

B3: MC1R-agonist pentapeptide 1 (Bz-Gly-His-D-Phe-Arg-L-Trp-NH2) (peptide)
peptide: Bz-GH[dF]RW-NH2
SMILES: N=C(N)NCCC[C@H](NC(=O)[C@@H](Cc1ccccc1)NC(=O)[C@H](Cc1c[nH]cn1)NC(=O)CNC(=O)c1ccccc1)C(=O)N[C@@H](Cc1c[nH]c2ccccc12)C(N)=O
On to B3, for which, in [4], the EC50 of MC1R activation (cAMP HTRF assay, CHO-K1 cells expressing human MC1R) came to 0.041 nM.

B4: MC1R-agonist pentapeptide 6 (Bz-Gly-His-D-Phe-Arg-D-Phe-NH2) (peptide)
peptide: Bz-GH[dF]R[dF]-NH2
SMILES: N=C(N)NCCC[C@H](NC(=O)[C@@H](Cc1ccccc1)NC(=O)[C@H](Cc1c[nH]cn1)NC(=O)CNC(=O)c1ccccc1)C(=O)N[C@H](Cc1ccccc1)C(N)=O
B4: the EC50 of MC1R activation (cAMP HTRF assay, CHO-K1 cells expressing human MC1R) in assay [4] worked out at 1.79 nM.

B5: MC1R-agonist pentapeptide 7 (Bz-Gly-His-D-Phe-Arg-[N-(CH2-3-indolyl)Gly]-NH2) (peptide)
peptide: Bz-GH[dF]R[N(indol-3-ylmethyl)Gly]-NH2
Consider B5, for which the EC50 of MC1R activation (cAMP HTRF assay, CHO-K1 cells expressing human MC1R) in assay [4] was found to be 4.4 nM.
